Results on six molecules are retold here after article doi:10.1101/2024.06.14.599074, “A higher order PUF complex is central to regulation of C. elegans germline stem cells” (bioRxiv, 2024).

“And” between values parts separate entries of the source, which are not always exact repeats. Equal values may be shown once.

For assay [1], the target named is T1, C. elegans FBF-2 RBD+CT (residues 164–632) (C. elegans, UniProt Q09312 164-632).
T1 sequence (looked up): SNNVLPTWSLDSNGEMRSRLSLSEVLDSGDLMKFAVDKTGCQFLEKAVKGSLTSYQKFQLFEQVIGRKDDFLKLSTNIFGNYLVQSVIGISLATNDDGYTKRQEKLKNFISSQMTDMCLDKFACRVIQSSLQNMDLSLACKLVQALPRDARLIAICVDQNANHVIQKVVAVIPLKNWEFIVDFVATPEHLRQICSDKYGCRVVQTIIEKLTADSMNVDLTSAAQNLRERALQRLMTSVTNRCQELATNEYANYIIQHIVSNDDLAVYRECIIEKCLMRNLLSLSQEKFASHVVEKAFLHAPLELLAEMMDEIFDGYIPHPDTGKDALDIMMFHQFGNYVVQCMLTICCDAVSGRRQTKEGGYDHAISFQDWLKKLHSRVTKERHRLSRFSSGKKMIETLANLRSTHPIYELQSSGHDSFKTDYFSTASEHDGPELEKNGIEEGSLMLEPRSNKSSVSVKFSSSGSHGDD
The experiment in a line: cell-based or functional assay.

Assay [2] addresses T1, C. elegans FBF-2 RBD+CT (residues …). Nature of the assay: ITC; LST-1 (100–400 μM) titrated from the syringe into the cell containing FBF-2 (10–30 μM); 20 °C; 20 mM HEPES pH 7.4, 150 mM NaCl, 0.5 mM TCEP; no RNA; one-site model; two technical replicates. Conditions: both partners purified. For orientation: In ITC the heat of successive injections is recorded.
Assay [3] concerns the target T2, FBF-2 RBD protein (residue 164–575) (C. elegans, UniProt Q09312 164-575).
T2 construct: Tag cleaved with TEV protease (construct derived from an earlier pGEX6p FBF-2 RBD construct); source: E. coli, purified (as FBF-2 RBD+CT); for SEC-MALS and cryo-EM coexpressed with GST-fused LST-1^19-98 and purified as a complex
T2 sequence (looked up): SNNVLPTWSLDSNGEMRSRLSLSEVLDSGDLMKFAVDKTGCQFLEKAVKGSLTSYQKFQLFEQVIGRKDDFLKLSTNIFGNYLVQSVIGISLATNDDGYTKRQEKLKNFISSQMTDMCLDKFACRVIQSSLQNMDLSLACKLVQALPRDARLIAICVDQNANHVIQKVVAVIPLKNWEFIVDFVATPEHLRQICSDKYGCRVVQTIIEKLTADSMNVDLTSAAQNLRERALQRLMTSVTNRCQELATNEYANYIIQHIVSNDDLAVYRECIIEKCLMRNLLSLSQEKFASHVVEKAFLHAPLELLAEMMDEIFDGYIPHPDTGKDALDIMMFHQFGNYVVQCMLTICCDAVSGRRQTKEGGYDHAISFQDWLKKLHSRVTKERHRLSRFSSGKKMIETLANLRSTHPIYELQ
Described as above. Conditions: both partners purified.

The target of assay [4] is T1, C. elegans FBF-2 RBD+CT (residues …). The experiment in a line: SEC-MALS; purified FBF-2 RBD+CT or RBD/LST-1^19-98 protein (~30 μM) with 29-nt gld-1 FBEa-FBEa* RNA; Superdex-200 10/300 GL; 20 mM HEPES pH 7.4, 150 mM NaCl, 2 mM DTT. Conditions: both partners purified.
In assay [5] the target is T2, FBF-2 RBD protein (residue 164–575). Described as above. The conditions noted are these: both partners purified.
Assay [6] has the same target. Nature of the assay: FRET or BRET; 2 μM unlabeled FBF-2 RBD pre-incubated with Cy5-labeled LST-1^19-98 (20, 40, 80 nM), then 20 nM 5′-Cy3-labeled gld-1 FBEa-FBEa* RNA; room temperature; FRET from Cy3 in the RNA to Cy5 in LST-1. Conditions: both partners purified. On the technique in general: BRET reads energy transfer from a luciferase to a nearby fluorophore.

B1: LST-1^19-98 (LST-1 residues 19–98, spanning PIM-A and PIM-B) (domain or fragment, C. elegans, UniProt P91820 19-98, looked up)
chain: STIAYSKSQHEAPKQLLQLRSEIKPLIPLNQPSNFWESSQDSGVLSSLSSSPQQRSGLRSQKLHLTYIEKNKRVRAMIPQ
notes: LST-1, C. elegans, residues 19–98 of the N-terminal intrinsically disordered region, with PIM-A and PIM-B; Codon-optimized synthetic cDNA in the pSMT3 vector; tag removed with Ulp1; also called LST-1 peptide (residues 19–98); source: E. coli BL21-CodonPlus (DE3)-RIL, purified (Ni-NTA, heparin, Ni-NTA pass, Superdex 75)
B1: the “EMSA: RNA-binding affinity of FBF-2 RBD+CT for gld-1 FBEa-FBEa* RNA with 10 μM LST-1^19-98 against without LST-1” value in assay [1] came out at 4 fold. In assay [2], the Kd – broadly, the concentration at which binding is half-saturated – is 1100 nM and 1900 nM; the dH was -14.8 kcal/mol and -10.8 kcal/mol; the stoichiometry N (in general, the number of molecules, sites or subunits per partner or assembly) is 0.5 sites and 0.57 sites. Moreover, in assay [3], the equilibrium dissociation constant (Kd) was 480 nM and 520 nM; the dH is -33.2 kcal/mol and -37.5 kcal/mol; the “stoichiometry N” value was determined as 0.46 sites.

B2: LST-1^19-98 from the GST fusion coexpressed with FBF-2 (domain or fragment, C. elegans, UniProt P91820 19-98, looked up)
chain: STIAYSKSQHEAPKQLLQLRSEIKPLIPLNQPSNFWESSQDSGVLSSLSSSPQQRSGLRSQKLHLTYIEKNKRVRAMIPQ
notes: LST-1, C. elegans, residues 19–98; GST cleaved off with TEV protease; also called GST-LST-1^19-98
Turning to B2, the “stoichiometry N” value in assay [4] and in assay [5] was 2 FBF-2 per LST-1 each time.

B3: C26-labeled LST-1^19-98 (S26C, Cy5) (domain or fragment, C. elegans, UniProt P91820 19-98, looked up)
chain: STIAYSKCQHEAPKQLLQLRSEIKPLIPLNQPSNFWESSQDSGVLSSLSSSPQQRSGLRSQKLHLTYIEKNKRVRAMIPQ
modifications: Cy5 on C26 via cysteine-maleimide conjugation
notes: LST-1, C. elegans, residues 19–98, cysteine in place of S26, five residues upstream of PIM-A; Probably made like wild-type LST-1^19-98 (His6-SUMO, cleaved); source: purified
Regarding B3, the binding result in assay [6] was “binds”.

B4: LST-1^19-98(B^m) (domain or fragment, C. elegans, UniProt P91820 19-98, looked up)
chain: STIAYSKSQHEAPKQLLQLRSEIKPLIPLNQPSNFWESSQDSGVLSSLSSSPQQRSGLRSQALHATAIEKNKRVRAMIPQ
notes: LST-1, C. elegans, residues 19–98, PIM-B mutated, PIM-A intact; also called LST-1 B^m; K80A/L83A/Y85A triple mutant in PIM-B; source: E. coli, purified (same protocol as for WT protein)
Regarding B4, in assay [2], the dissociation constant Kd was 24100 nM and 46200 nM; the dH was -11.1 kcal/mol and -11.5 kcal/mol; the “stoichiometry N” value was 1.06 sites and 0.89 sites. Moreover, in assay [3], the Kd was 1460 nM and 1540 nM; the dH was -12.1 kcal/mol and -12.5 kcal/mol; the “stoichiometry N” value was 0.83 sites and 0.86 sites.

B5: C74-labeled LST-1^19-98 (S74C, Cy5) (domain or fragment, C. elegans, UniProt P91820 19-98, looked up)
chain: STIAYSKSQHEAPKQLLQLRSEIKPLIPLNQPSNFWESSQDSGVLSSLSSSPQQRCGLRSQKLHLTYIEKNKRVRAMIPQ
modifications: Cy5 on C74 via cysteine-maleimide conjugation
notes: LST-1, C. elegans, residues 19–98, cysteine in place of S74, five residues upstream of PIM-B; Probably made like wild-type LST-1^19-98 (His6-SUMO, cleaved); source: purified
Regarding B5, in assay [6], the binding result is on record as “binds”.

B6: LST-1^19-98(A^m) (domain or fragment, C. elegans, UniProt P91820 19-98, looked up)
chain: STIAYSKSQHEAPAQLAQLRSEIKPLIPLNQPSNFWESSQDSGVLSSLSSSPQQRSGLRSQKLHLTYIEKNKRVRAMIPQ
notes: LST-1, C. elegans, residues 19–98, PIM-A mutated, PIM-B intact; also called LST-1 A^m; K32A/L35A double mutant in PIM-A; source: E. coli, purified (same protocol as for WT protein)
As to B6, in assay [2], the Kd is 3700 nM and 2800 nM; the dH was -11.4 kcal/mol and -11.5 kcal/mol; the “stoichiometry N” value is 1.02 sites and 0.98 sites. Besides, in assay [3], the equilibrium dissociation constant (Kd) is 130 nM and 120 nM; the dH was -15.3 kcal/mol and -16.5 kcal/mol; the “stoichiometry N” value is 1.15 sites and 1.05 sites.
